Test [1] deals with recombinant cynomolgus monkey CD3ε/δ heterodimer (cynomolgus monkey) (UniProt Q95LI5). In words: ELISA, coated CD3ε/δ.
Test [2] addresses recombinant human CD3ε/δ heterodimer (human) (UniProt P07766). In words: ELISA, coated CD3ε/δ. (In general: ELISA stands for enzyme-linked immunosorbent assay.)

recombinant cynomolgus monkey CD3ε/δ heterodimer (cynomolgus monkey), sequence (Q95LI5 22-117, stated change not applied, chain 1 of 2): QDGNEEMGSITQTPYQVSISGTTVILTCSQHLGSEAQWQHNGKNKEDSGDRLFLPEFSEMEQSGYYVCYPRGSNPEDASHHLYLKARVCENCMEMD
recombinant cynomolgus monkey CD3ε/δ heterodimer (cynomolgus monkey), sequence (Q95LI8 22-105, stated change not applied, chain 2 of 2, further chain): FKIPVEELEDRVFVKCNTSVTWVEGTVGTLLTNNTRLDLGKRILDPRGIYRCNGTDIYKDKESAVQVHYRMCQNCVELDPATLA
recombinant human CD3ε/δ heterodimer (human), sequence (P07766 23-126, stated change not applied, chain 1 of 2): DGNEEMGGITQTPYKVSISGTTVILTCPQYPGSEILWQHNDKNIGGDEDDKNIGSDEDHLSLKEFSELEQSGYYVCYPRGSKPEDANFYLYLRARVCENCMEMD
recombinant human CD3ε/δ heterodimer (human), sequence (P04234 22-105, stated change not applied, chain 2 of 2, further chain): as the sequence (Q95LI8 22-105, stated change not applied, chain 2 of 2, further chain) above, with V5I, K15N, V20I, T32S, N33D, N34I, A64T, N74S, L83V counted along it

B1: C02 (antibody, human IgG1, lambda, L234A L235A, V domains shown)
VH: EVQLVESGGGLVQPGGSLKLSCAASGFTFNTYAMNWVRQASGKGLEWVGRIRSKYNNYATYYADSVKDRFTISRDDSQSTAYLQMNSLKTEDTAVYYCVRHGNFGNSYVSWFAYWGQGTLVTVSS
VL: QAVVTQEPSLTVSPGGTVTLTCRSSTGAVTTSNYANWFQQKPGQAPRTLIYGTNKRAPWTPARFSGSLLGDKAALTLSGAQPEDEAEYYCALWYSNLWVFGGGTKLTVLG
Regarding B1, the Absorbance (450 nm) in test [1] worked out at 0.071; in test [2] it was 0.099.

B2: D02 (antibody, human IgG1, lambda, L234A L235A, V domains shown)
VH: EVQLVESGGGLVQPGGSLKLSCAASGFTFNTYAMNWVRQASGKGLEWVGRIRSKYNNYATYYADSVKDRFTISRDDSQSTLYLQMNSLKTEDTAVYYCVRHGNFGNSYVSWFAYWGQGTLVTVSS
VL: QAVVTQEPSLTVSPGGTVTLTCRSSTGAVTTSNYANWFQQKPGQAPRTLIYGTNKRAPWTPARFSGSLLGDKAALTLSGAQPEDEAEYYCALWYSNLWVFGGGTKLTVLG
B2: the Absorbance (450 nm) in test [1] stood at 0.073; in test [2], 0.15.

B3: A05 (antibody, human IgG1, lambda, L234A L235A, V domains shown)
VH: EVQLVESGGGLVQPGGSLKLSCAASGFTFNTYAMNWVRQASGKGLEWVGRIRSKYNNYATYYADSVKDRFTISRDDSKNTAYLQMNSLKTEDTAVYYCVRHGNFGNSYVSWFAYWGQGTLVTVSS
VL: QAVVTQEPSLTVSPGGTVTLTCRSSTGAVTTSNYANWFQQKPGQAPRGLIYGTNKRAPWTPARFSGSLLGGKAALTLSGAQPEDEAEYYCALWYSNLWVFGGGTKLTVLG
Regarding B3, the Absorbance (450 nm) in test [1] is 0.141; in test [2], 0.167.

B4: A04 (antibody, human IgG1, lambda, L234A L235A, V domains shown)
VH: EVQLVESGGGLVQPGGSLKLSCAASGFTFNTYAMNWVRQASGKGLEWVGRIRSKYNNYATYYADSVKDRFTISRDDSKNTAYLQMNSLKTEDTAVYYCVRHGNFGNSYVSWFAYWGQGTLVTVSS
VL: QAVVTQEPSLTVSPGGTVTLTCRSSTGAVTTSNYANWFQQKPGQAPRTLIGGTNKRAPWTPARFSGSLLGDKAALTLSGAQPEDEAEYYCALWYSNLWVFGGGTKLTVLG
Consider B4, for which the values for the Absorbance (450 nm) in test [1] and in test [2] were 0.065 and 0.098, respectively.

B5: C03 (antibody, human IgG1, lambda, L234A L235A, V domains shown)
VH: EVQLVESGGGLVQPGGSLKLSCAASGFTFNTYAMNWVRQASGKGLEWVGRIRSKYNNYATYYADSVKDRFTISRDDSQSTAYLQMNSLKTEDTAVYYCVRHGNFGNSYVSWFAYWGQGTLVTVSS
VL: QAVVTQEPSLTVSPGGTVTLTCRSSTGAVTTSNYANWFQQKPGQAPRTLIGGTNKRAPWTPARFSGSLLGGKAALTLSGAQPEDEAEYYCALWYSNLWVFGGGTKLTVLG
In the case of B5, the Absorbance (450 nm) in test [1] was determined as 0.089; in test [2] it was 0.14.

B6: C04 (antibody, human IgG1, lambda, L234A L235A, V domains shown)
VH: EVQLVESGGGLVQPGGSLKLSCAASGFTFNTYAMNWVRQASGKGLEWVGRIRSKYNNYATYYADSVKDRFTISRDDSQSTAYLQMNSLKTEDTAVYYCVRHGNFGNSYVSWFAYWGQGTLVTVSS
VL: QAVVTQEPSLTVSPGGTVTLTCRSSTGAVTTSNYANWFQQKPGQAPRTLIGGTNKRAPWTPARFSGSLLGDKAALTLSGAQPEDEAEYYCALWYSNLWVFGGGTKLTVLG
In the case of B6, the Absorbance (450 nm) in test [1] amounted to 0.067; in test [2], 0.093.

B7: C11 (antibody, human IgG1, lambda, L234A L235A, V domains shown)
VH: EVQLVESGGGLVQPGGSLKLSCAASGFTFNTYAMNWVRQASGKGLEWVGRIRSKYNNYATYYADSVKDRFTISRDDSQSTAYLQMNSLKTEDTAVYYCVRHGNFGNSYVSWFAYWGQGTLVTVSS
VL: QAVVTQEPSLTVSPGGTVTLTCRSSTGAVTTSNYANWVQQKPGQAPRTLIGGTNKRAPWTPARFSGSLLGGKAALTLSGAQPEDEAEYYCALWYSNLWVFGGGTKLTVLG
Regarding B7, the figures for the Absorbance (450 nm) in test [1] and in test [2] were 0.261 and 0.288, respectively.

B8: C06 (antibody, human IgG1, lambda, L234A L235A, V domains shown)
VH: EVQLVESGGGLVQPGGSLKLSCAASGFTFNTYAMNWVRQASGKGLEWVGRIRSKYNNYATYYADSVKDRFTISRDDSQSTAYLQMNSLKTEDTAVYYCVRHGNFGNSYVSWFAYWGQGTLVTVSS
VL: QAVVTQEPSLTVSPGGTVTLTCRSSTGAVTTSNYANWFQQKPGQAPRGLIYGTNKRAPWTPARFSGSLLGDKAALTLSGAQPEDEAEYYCALWYSNLWVFGGGTKLTVLG
On to B8, for which the Absorbance (450 nm) in test [1] was determined as 0.083; in test [2], 0.108.

B9: D05 (antibody, human IgG1, lambda, L234A L235A, V domains shown)
VH: EVQLVESGGGLVQPGGSLKLSCAASGFTFNTYAMNWVRQASGKGLEWVGRIRSKYNNYATYYADSVKDRFTISRDDSQSTLYLQMNSLKTEDTAVYYCVRHGNFGNSYVSWFAYWGQGTLVTVSS
VL: QAVVTQEPSLTVSPGGTVTLTCRSSTGAVTTSNYANWFQQKPGQAPRGLIYGTNKRAPWTPARFSGSLLGGKAALTLSGAQPEDEAEYYCALWYSNLWVFGGGTKLTVLG
On to B9, for which the Absorbance (450 nm) in test [1] stood at 0.101; in test [2] it was 0.121.

B10: D06 (antibody, human IgG1, lambda, L234A L235A, V domains shown)
VH: EVQLVESGGGLVQPGGSLKLSCAASGFTFNTYAMNWVRQASGKGLEWVGRIRSKYNNYATYYADSVKDRFTISRDDSQSTLYLQMNSLKTEDTAVYYCVRHGNFGNSYVSWFAYWGQGTLVTVSS
VL: QAVVTQEPSLTVSPGGTVTLTCRSSTGAVTTSNYANWFQQKPGQAPRGLIYGTNKRAPWTPARFSGSLLGDKAALTLSGAQPEDEAEYYCALWYSNLWVFGGGTKLTVLG
As to B10, the Absorbance (450 nm) amounted to 0.11 in test [1] and 0.136 in test [2].

B11: C10 (antibody, human IgG1, lambda, L234A L235A, V domains shown)
VH: EVQLVESGGGLVQPGGSLKLSCAASGFTFNTYAMNWVRQASGKGLEWVGRIRSKYNNYATYYADSVKDRFTISRDDSQSTAYLQMNSLKTEDTAVYYCVRHGNFGNSYVSWFAYWGQGTLVTVSS
VL: QAVVTQEPSLTVSPGGTVTLTCRSSTGAVTTSNYANWVQQKPGQAPRTLIYGTNKRAPWTPARFSGSLLGDKAALTLSGAQPEDEAEYYCALWYSNLWVFGGGTKLTVLG
Consider B11, for which the results for the Absorbance (450 nm) in test [1] and in test [2] were 0.074 and 0.096, respectively.

B12: C12 (antibody, human IgG1, lambda, L234A L235A, V domains shown)
VH: EVQLVESGGGLVQPGGSLKLSCAASGFTFNTYAMNWVRQASGKGLEWVGRIRSKYNNYATYYADSVKDRFTISRDDSQSTAYLQMNSLKTEDTAVYYCVRHGNFGNSYVSWFAYWGQGTLVTVSS
VL: QAVVTQEPSLTVSPGGTVTLTCRSSTGAVTTSNYANWVQQKPGQAPRTLIGGTNKRAPWTPARFSGSLLGDKAALTLSGAQPEDEAEYYCALWYSNLWVFGGGTKLTVLG
Regarding B12, the Absorbance (450 nm) in test [1] was determined as 0.065; in test [2], 0.087.

B13: C05 (antibody, human IgG1, lambda, L234A L235A, V domains shown)
VH: EVQLVESGGGLVQPGGSLKLSCAASGFTFNTYAMNWVRQASGKGLEWVGRIRSKYNNYATYYADSVKDRFTISRDDSQSTAYLQMNSLKTEDTAVYYCVRHGNFGNSYVSWFAYWGQGTLVTVSS
VL: QAVVTQEPSLTVSPGGTVTLTCRSSTGAVTTSNYANWFQQKPGQAPRGLIYGTNKRAPWTPARFSGSLLGGKAALTLSGAQPEDEAEYYCALWYSNLWVFGGGTKLTVLG
As to B13, the Absorbance (450 nm) in test [1] came to 0.128; in test [2], 0.107.

B14: C14 (antibody, human IgG1, lambda, L234A L235A, V domains shown)
VH: EVQLVESGGGLVQPGGSLKLSCAASGFTFNTYAMNWVRQASGKGLEWVGRIRSKYNNYATYYADSVKDRFTISRDDSQSTAYLQMNSLKTEDTAVYYCVRHGNFGNSYVSWFAYWGQGTLVTVSS
VL: QAVVTQEPSLTVSPGGTVTLTCRSSTGAVTTSNYANWVQQKPGQAPRGLIYGTNKRAPWTPARFSGSLLGDKAALTLSGAQPEDEAEYYCALWYSNLWVFGGGTKLTVLG
Take B14: the figures for the Absorbance (450 nm) in test [1] and in test [2] were 0.095 and 0.107, respectively.

B15: C13 (antibody, human IgG1, lambda, L234A L235A, V domains shown)
VH: EVQLVESGGGLVQPGGSLKLSCAASGFTFNTYAMNWVRQASGKGLEWVGRIRSKYNNYATYYADSVKDRFTISRDDSQSTAYLQMNSLKTEDTAVYYCVRHGNFGNSYVSWFAYWGQGTLVTVSS
VL: QAVVTQEPSLTVSPGGTVTLTCRSSTGAVTTSNYANWVQQKPGQAPRGLIYGTNKRAPWTPARFSGSLLGGKAALTLSGAQPEDEAEYYCALWYSNLWVFGGGTKLTVLG
For the molecule B15, the Absorbance (450 nm) in test [1] and in test [2] was 0.179 in each case.

B16: C09 (antibody, human IgG1, lambda, L234A L235A, V domains shown)
VH: EVQLVESGGGLVQPGGSLKLSCAASGFTFNTYAMNWVRQASGKGLEWVGRIRSKYNNYATYYADSVKDRFTISRDDSQSTAYLQMNSLKTEDTAVYYCVRHGNFGNSYVSWFAYWGQGTLVTVSS
VL: QAVVTQEPSLTVSPGGTVTLTCRSSTGAVTTSNYANWVQQKPGQAPRTLIYGTNKRAPWTPARFSGSLLGGKAALTLSGAQPEDEAEYYCALWYSNLWVFGGGTKLTVLG
With B16, the figures for the Absorbance (450 nm) in test [1] and in test [2] were 0.075 and 0.109, respectively.

B17: D04 (antibody, human IgG1, lambda, L234A L235A, V domains shown)
VH: EVQLVESGGGLVQPGGSLKLSCAASGFTFNTYAMNWVRQASGKGLEWVGRIRSKYNNYATYYADSVKDRFTISRDDSQSTLYLQMNSLKTEDTAVYYCVRHGNFGNSYVSWFAYWGQGTLVTVSS
VL: QAVVTQEPSLTVSPGGTVTLTCRSSTGAVTTSNYANWFQQKPGQAPRTLIGGTNKRAPWTPARFSGSLLGDKAALTLSGAQPEDEAEYYCALWYSNLWVFGGGTKLTVLG
B17: the Absorbance (450 nm) was 0.072 in test [1] and 0.091 in test [2].

B18: D01 (antibody, human IgG1, lambda, L234A L235A, V domains shown)
VH: EVQLVESGGGLVQPGGSLKLSCAASGFTFNTYAMNWVRQASGKGLEWVGRIRSKYNNYATYYADSVKDRFTISRDDSQSTLYLQMNSLKTEDTAVYYCVRHGNFGNSYVSWFAYWGQGTLVTVSS
VL: QAVVTQEPSLTVSPGGTVTLTCRSSTGAVTTSNYANWFQQKPGQAPRTLIYGTNKRAPWTPARFSGSLLGGKAALTLSGAQPEDEAEYYCALWYSNLWVFGGGTKLTVLG
On to B18, for which the Absorbance (450 nm) in test [1] amounted to 0.099; in test [2] it was 0.136.

B19: D03 (antibody, human IgG1, lambda, L234A L235A, V domains shown)
VH: EVQLVESGGGLVQPGGSLKLSCAASGFTFNTYAMNWVRQASGKGLEWVGRIRSKYNNYATYYADSVKDRFTISRDDSQSTLYLQMNSLKTEDTAVYYCVRHGNFGNSYVSWFAYWGQGTLVTVSS
VL: QAVVTQEPSLTVSPGGTVTLTCRSSTGAVTTSNYANWFQQKPGQAPRTLIGGTNKRAPWTPARFSGSLLGGKAALTLSGAQPEDEAEYYCALWYSNLWVFGGGTKLTVLG
As for B19, the Absorbance (450 nm) in test [1] is 0.13; in test [2] it was 0.159.
